Among the data in the supplement of paper PMC10567573 are protein stability index values, retold here.

The nature of the data set: protein stability index of a GFP-peptide fusion (GPS, HEK-293T) (PSI 1-6); higher = more stable. To be noted: c terminus: a fixed tail appended.

± gives the standard deviation.
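Note: 24-mer peptide tiles fused after GFP, lentivirally expressed, FACS-sorted into six equal bins by GFP/DsRed ratio, decoded by Illumina sequencing, PSI is the read-weighted mean bin number.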

As for KVVSRAENLSVPVIGALLRFNQAI [LPCAT4], the protein stability index is, setting by setting: (treatment: DMSO) 2.15 ± 0.54; (treatment: MLN4924 1 uM, 8 h) 2.18 ± 0.19.

Take LAIQARKRRPKREKHPKKPEPQQK [SRPK2]: the protein stability index by setting is: (treatment: DMSO) 4.32 ± 0.2; (treatment: MLN4924 1 uM, 8 h) 4.59 ± 0.25.

LALKTPPRVLTLSERPLDFLDLER [MFF]: the protein stability index reads like this: (treatment: DMSO) 2.96 ± 0.45; (treatment: MLN4924 1 uM, 8 h) 3.1 ± 0.21.

LALPPGAEHWTKEHCGAVCFVKDN [WAS] displayed a protein stability index (treatment: DMSO) of 3.35 ± 0.23 and a protein stability index (treatment: MLN4924 1 uM, 8 h) of 3.45 ± 0.59.

For the sequence LARVPKLDLKRQYDRVAQLDQLLH [CHGB], the protein stability index (treatment: DMSO) was 2.15 ± 0.063 and the protein stability index (treatment: MLN4924 1 uM, 8 h) stood at 2.48 ± 0.26.

Sequence LASLGASEEAVQKLATCYFFTVEF [TPH1] registered a protein stability index (treatment: DMSO) of 2.98 ± 0.52 and a protein stability index (treatment: MLN4924 1 uM, 8 h) of 2.73 ± 0.66.

For LASYLEKVRQLERDNAELENLIRE [KRT33B], the protein stability index was 3.31 ± 0.5 (treatment: DMSO) and 3.34 ± 0.36 (treatment: MLN4924 1 uM, 8 h).

As for LATASYDTRVYIWDPHNGDILMEF [WSB1], the protein stability index was determined as 2.85 ± 0.12 (treatment: DMSO) and 2.86 ± 0.26 (treatment: MLN4924 1 uM, 8 h).

Consider LCRKCANDIFQAANPYWTSRGSSV [TRIM63], for which the protein stability index came to 2.32 ± 0.36 (treatment: DMSO) and 2.58 ± 0.49 (treatment: MLN4924 1 uM, 8 h).

In turn, LDMEKRRCRQSLEDSESLRIKEVE [LRRC45] showed a protein stability index (treatment: DMSO) of 4.79 ± 0.2 and a protein stability index (treatment: MLN4924 1 uM, 8 h) of 4.67 ± 0.1.

Regarding LDRDALKQSLVVAVQDHGQPPLSA [PCDHGA10], the protein stability index runs as follows: (treatment: DMSO) 4.49 ± 0.19; (treatment: MLN4924 1 uM, 8 h) 4.678 ± 0.044.

For the sequence LDSCNSLTPKSTPVKTLPFSPSQF [MYBL2], the protein stability index by setting is: (treatment: DMSO) 3.34 ± 0.2; (treatment: MLN4924 1 uM, 8 h) 3.37 ± 0.42.

For LDVERWLKPAMTQAQDEVEQERRL [FCHSD1], the protein stability index is 4.98 ± 0.16 (treatment: DMSO) and 5.11 ± 0.19 (treatment: MLN4924 1 uM, 8 h).

Turning to LDVRARLECEINTYRSLLESEDCK [KRT33B], the protein stability index by setting is: (treatment: DMSO) 4.23 ± 0.16; (treatment: MLN4924 1 uM, 8 h) 4.38 ± 0.25.

As to LEDLESELDDPGQPVSLRRRKREV [ZNF24], the protein stability index (treatment: DMSO) amounted to 5.38 ± 0.09 and the protein stability index (treatment: MLN4924 1 uM, 8 h) is 5.49 ± 0.16.

With LEDLKDQIAQLEASLAAAKKQLAD [LMNB1], the protein stability index reads like this: (treatment: DMSO) 5.3 ± 0.12; (treatment: MLN4924 1 uM, 8 h) 5.21 ± 0.15.

With LEFDLLIFSFGQLPLALVTWVPMF [SOAT2], the protein stability index came out at 3.17 ± 0.49 (treatment: DMSO) and 3.02 ± 0.33 (treatment: MLN4924 1 uM, 8 h).

With LFAGFLPRIIKAAPSCAIMISTYE [SLC25A39], the protein stability index is 2.8 ± 0.31 (treatment: DMSO) and 3.21 ± 0.75 (treatment: MLN4924 1 uM, 8 h).

For LFQTHENREHLVMMEKILGPIPSH [CLK3], the protein stability index is, setting by setting: (treatment: DMSO) 2.85 ± 0.3; (treatment: MLN4924 1 uM, 8 h) 3.1 ± 0.15.

LGPESWQQIAMDPEEVKSLDSNGA [BCL2L13]: the protein stability index reads like this: (treatment: DMSO) 5.16 ± 0.16; (treatment: MLN4924 1 uM, 8 h) 5.24 ± 0.21.

In the case of LGPSGLQNHGQHLILSREASWAKP [LCOR], the protein stability index (treatment: DMSO) came to 3.08 ± 0.19 and the protein stability index (treatment: MLN4924 1 uM, 8 h) is 3.18 ± 0.2.

In the case of LGPSRDPDPLNICVFILLLVFIVV [RTP4], the protein stability index reads like this: (treatment: DMSO) 3.8 ± 0.48; (treatment: MLN4924 1 uM, 8 h) 2.77 ± 0.41.

On to LGRELMLQLSEFLCEEFRNRNQRI [CPN1], for which the protein stability index reads like this: (treatment: DMSO) 2.31 ± 0.2; (treatment: MLN4924 1 uM, 8 h) 2.26 ± 0.26.

LGVVYRSLSFEDELVYADDYIMDE [ESRRG]: the protein stability index is, setting by setting: (treatment: DMSO) 2.46 ± 0.04; (treatment: MLN4924 1 uM, 8 h) 2.67 ± 0.33.

On to LICAISHTHRAHTVVPLDDATQEY [TRIM39], for which the protein stability index was determined as 2.59 ± 0.19 (treatment: DMSO) and 2.51 ± 0.38 (treatment: MLN4924 1 uM, 8 h).

In the case of LIGDFSKGYLFHTVAGKHQDLKYI [CDC25A], the protein stability index stood at 2.02 ± 0.32 (treatment: DMSO) and 1.81 ± 0.43 (treatment: MLN4924 1 uM, 8 h).

Sequence LIKSGAHFDATNLHKQTASDLLDE [FEM1C] yielded a protein stability index (treatment: DMSO) of 4.61 ± 0.36 and a protein stability index (treatment: MLN4924 1 uM, 8 h) of 4.53 ± 0.51.

Consider LITQQIIPVLYCMVFIAGILLNGV [P2RY14], for which the protein stability index turned out to be 3.37 ± 0.2 (treatment: DMSO) and 3.42 ± 0.44 (treatment: MLN4924 1 uM, 8 h).

For LIWVVGPVLAVVFIICIVIAILLY [PTPRD], the protein stability index was determined as 2.35 ± 0.21 (treatment: DMSO) and 2.15 ± 0.29 (treatment: MLN4924 1 uM, 8 h).

As for LKGVKQACCEFLESQLDPSNCLGI [KLHL12], the protein stability index amounted to 2.66 ± 0.66 (treatment: DMSO) and 2.51 ± 0.29 (treatment: MLN4924 1 uM, 8 h).

Take LKKFLYNFDNPWNFQNIPKETELP [MIA2]: the protein stability index by setting is: (treatment: DMSO) 3.061 ± 0.006; (treatment: MLN4924 1 uM, 8 h) 2.66 ± 0.41.

In the case of LKTGNSSPGIGAVYLANQAKNQSD [RTP4], the protein stability index is, setting by setting: (treatment: DMSO) 3.82 ± 0.14; (treatment: MLN4924 1 uM, 8 h) 3.97 ± 0.19.

LLGEPLAGPELDEMLREVDLNGDG [CABP4] displayed a protein stability index (treatment: DMSO) of 5.18 ± 0.21 and a protein stability index (treatment: MLN4924 1 uM, 8 h) of 5.36 ± 0.21.

Turning to LLLAYNSSARIPKCPWMEGGEMSP [INTS4], the protein stability index reads like this: (treatment: DMSO) 2.27 ± 0.32; (treatment: MLN4924 1 uM, 8 h) 2.17 ± 0.14.

In the case of LLLFLVFVIVLFFIYHFMQAEEGN [EMD], the protein stability index by setting is: (treatment: DMSO) 2.23 ± 0.15; (treatment: MLN4924 1 uM, 8 h) 2.42 ± 0.15.

With LLLSHIHASSYISPEKEEQYIAQF [PRAME], the protein stability index came out at 2.42 ± 0.54 (treatment: DMSO) and 2.37 ± 0.4 (treatment: MLN4924 1 uM, 8 h).

Take LLNLVDHTEVVRDLTFAPDGSLIL [WSB1]: the protein stability index reads like this: (treatment: DMSO) 2.24 ± 0.13; (treatment: MLN4924 1 uM, 8 h) 2.16 ± 0.16.

Take LLNPNLKDTVICAMKITQEPQGLG [SPACA3]: the protein stability index came to 2.4 ± 0.4 (treatment: DMSO) and 2.51 ± 0.21 (treatment: MLN4924 1 uM, 8 h).

With LLPKSRENYLNRCMDQERLRREST [FCHO1], the protein stability index is, setting by setting: (treatment: DMSO) 3.31 ± 0.17; (treatment: MLN4924 1 uM, 8 h) 3.21 ± 0.16.

For the sequence LLRTFDAGEFTGWEKVGSGGFGQV [RIPK4], the protein stability index by setting is: (treatment: DMSO) 2.43 ± 0.56; (treatment: MLN4924 1 uM, 8 h) 2.53 ± 0.094.

With LLTIGDANGEIQRHAEQQALRLEV [CARM1], the protein stability index is, setting by setting: (treatment: DMSO) 3.53 ± 0.27; (treatment: MLN4924 1 uM, 8 h) 3.71 ± 0.11.

Take LLTTSGIQFKKHEEEGIETQYFAE [CNOT7]: the protein stability index runs as follows: (treatment: DMSO) 4.13 ± 0.13; (treatment: MLN4924 1 uM, 8 h) 4.19 ± 0.11.

For LLYTSLPDFCHKFLPGYVGGIQEG [DHCR7], the protein stability index (treatment: DMSO) was found to be 2.58 ± 0.58 and the protein stability index (treatment: MLN4924 1 uM, 8 h) was determined as 2.71 ± 0.63.

LMADLVADISEAEQRTIQAQKESL [APBB1IP]: the protein stability index (treatment: DMSO) amounted to 3.5 ± 0.56 and the protein stability index (treatment: MLN4924 1 uM, 8 h) was 3.6 ± 0.45.

In the case of LMAGCIQEARERWNFDFVTETPLE [CDKN1A], the protein stability index reads like this: (treatment: DMSO) 2.84 ± 0.67; (treatment: MLN4924 1 uM, 8 h) 2.92 ± 0.33.

For the sequence LMVGPNFRVGKKIGCGNFGELRLG [CSNK1G3], the protein stability index reads like this: (treatment: DMSO) 1.9 ± 0.23; (treatment: MLN4924 1 uM, 8 h) 2.58 ± 0.59.

On to LPAGPLPAPLLVLCPSRAELDRWL [PLEKHN1], for which the protein stability index came out at 2.81 ± 0.16 (treatment: DMSO) and 2.6 ± 0.22 (treatment: MLN4924 1 uM, 8 h).

For LPCFNGRVVSWLVSAEGSHPDPAP [DVL3], the protein stability index worked out at 2.64 ± 0.24 (treatment: DMSO) and 2.53 ± 0.28 (treatment: MLN4924 1 uM, 8 h).

Consider LPDPREACGSSSYVASIVDGGESR [RBMY1A1], for which the protein stability index runs as follows: (treatment: DMSO) 4.74 ± 0.24; (treatment: MLN4924 1 uM, 8 h) 4.64 ± 0.14.

Take LPELFHKIGVGAMTWSPLACGIVS [KCNAB2]: the protein stability index runs as follows: (treatment: DMSO) 2.74 ± 0.42; (treatment: MLN4924 1 uM, 8 h) 2.84 ± 0.46.

With LPELKANPFKERICRVFSTSPAKD [CIB1], the protein stability index came out at 3.46 ± 0.08 (treatment: DMSO) and 3.58 ± 0.2 (treatment: MLN4924 1 uM, 8 h).

In the case of LPGACNIPANVSNCNWFCEGSFNG [KRT33B], the protein stability index (treatment: DMSO) came out at 2.33 ± 0.27 and the protein stability index (treatment: MLN4924 1 uM, 8 h) was found to be 2.36 ± 0.22.

As to LPMLSVDMENKENGSVGVKNSMEN [SAMD13], the protein stability index (treatment: DMSO) turned out to be 5.09 ± 0.25 and the protein stability index (treatment: MLN4924 1 uM, 8 h) worked out at 5.18 ± 0.27.
